Test results reported in patent US20080009025A1, “PROTEIN KINASE REGULATION” (priority 1999, published 2008).
Where a SMILES comes first, the peptide text is derived from it.

Experiments:
PDK1 [1] = biological target: T1, PDK1 (Homo sapiens, UniProt O15530); assay: PDK1 activity towards synthetic peptide substrates T308tide or PDKtide; format: biochemical
T1 construct: Full length PDK1 (residues 1-556); made in house; host or cells: 293 cells
T1 sequence (O15530 52-556): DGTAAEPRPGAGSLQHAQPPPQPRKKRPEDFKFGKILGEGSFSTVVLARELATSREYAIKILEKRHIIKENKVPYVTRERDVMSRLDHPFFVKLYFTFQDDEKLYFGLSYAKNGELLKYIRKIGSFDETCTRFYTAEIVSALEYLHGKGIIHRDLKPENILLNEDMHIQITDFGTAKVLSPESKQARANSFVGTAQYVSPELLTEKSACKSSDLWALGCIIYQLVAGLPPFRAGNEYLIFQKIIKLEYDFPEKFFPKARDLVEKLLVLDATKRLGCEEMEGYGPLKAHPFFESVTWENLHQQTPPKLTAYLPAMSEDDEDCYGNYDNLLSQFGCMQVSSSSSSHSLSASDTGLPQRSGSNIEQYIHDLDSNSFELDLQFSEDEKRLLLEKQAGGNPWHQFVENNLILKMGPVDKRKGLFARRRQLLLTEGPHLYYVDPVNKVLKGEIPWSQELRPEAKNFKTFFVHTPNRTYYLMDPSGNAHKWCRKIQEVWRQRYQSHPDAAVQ
Procedure: FIG. 12. PDK1 is activated and stabilised through its interaction with PIFtide. (A) GST-PDK1 activity was measured in the presence of increasing concentrations of wild type (wt) PIFtide (closed circles) or a mutant D978A PIFtide (open circles) using the synthetic peptide substrate termed T308tide, as described in Material and Methods. The data was fitted to a hyperbola using the Kaleidagraph™ software. The connection needed to obtain 50% activation of PDK1 was […] for wt-PIFtide and 1.1 μM for D978A-PIFtide. The assay shown was performed in triplicate and there was less than 5% difference between each assay. Similar results were obtained in 2 further experiments (B)—The wild type GST-PDK1 (circles) or the L155D mutant of GST-PDK1 (squares) was incubated in the presence (closed symbols) or absence (open symbols) of […] PIFtife and then for 2 min at the indicated temperatures, rapidly brought to 0° C. (see Materials and Methods), and 2 min later assayed at 30° C. for 10 min using T308tide as substrate. The activity of PDK1 obtained by incubation at 30° C. was taken as 100%. The assay shown was performed in duplicate with similar results obtained in two separate experiments.
FIG. 14. […] (A) His-PDK1 was assayed for activity using as substrate the indicated concentration of either PDKtide (open triangles) or T308tide (open circles). (B) HIS-PDK1 was assayed for activity in the presence if PDKtide (25 μM closed triangles) or T308tide (100 μM closed circles) in the presence of the indicated concentrations of PIFtide. The assay was performed in triplicates with less than 5% difference between the triplicate samples. Similar results were obtained in 3 separate experiments.
PDK1's ability to phosphorylate Thr308 of PKBα was measured using a mutant of GST-PKBα in which Ser473 was mutated to Asp (GST-473D PKBα) in the presence of phospholipid vesicles containing sn-1-stearoyl-2-arachidonoyl-D-PtdIns (3, 4, 5)P3 [13]. The ability of wild type and mutant PDK1 to phosphorylate the synthetic peptides T308tide or PDKtide was carried out in 20 μl assays containing 50 mM Tris/HCl pH 7.5, 0.1% 2-mercaptoethanol 10 mM MgCl2, 100 μM [γ^32P]ATP (˜500 cpm/pmol) 0.5 μM microcystin-LR.PDK1 and the peptide concentrations indicated under Results. After incubation for 10 min at 30° C. the reaction was stopped by addition of 20 μl of 150 mM phosphoric acid. 35 μl of the resultant mixture was spotted into P81 phosphocellulose paper (2×2 cm) and the papers washed and analysed as described previously for assays of MAP kinase. […] Control assays were carried out in parallel in which either PDK1, or peptide substrate were omitted; these values were always less than 5% of the activity measured in the presence of these reagents. […]

PDK1 [2] = conditions: ref [22]; cited from earlier work
PDK1 [3] = biological target: T2, PDK1 (Homo sapiens, UniProt O15530); assay: Phosphorylation of GST-p70 S6K-T2 by PDK1 in vitro (32P autoradiography); format: biochemical; design: made in house; host or cells: 293 cells or E. coli; conditions: GST fusion 1.5 μM; GST-PDK1 50 nM
T2 sequence (O15530 1-556): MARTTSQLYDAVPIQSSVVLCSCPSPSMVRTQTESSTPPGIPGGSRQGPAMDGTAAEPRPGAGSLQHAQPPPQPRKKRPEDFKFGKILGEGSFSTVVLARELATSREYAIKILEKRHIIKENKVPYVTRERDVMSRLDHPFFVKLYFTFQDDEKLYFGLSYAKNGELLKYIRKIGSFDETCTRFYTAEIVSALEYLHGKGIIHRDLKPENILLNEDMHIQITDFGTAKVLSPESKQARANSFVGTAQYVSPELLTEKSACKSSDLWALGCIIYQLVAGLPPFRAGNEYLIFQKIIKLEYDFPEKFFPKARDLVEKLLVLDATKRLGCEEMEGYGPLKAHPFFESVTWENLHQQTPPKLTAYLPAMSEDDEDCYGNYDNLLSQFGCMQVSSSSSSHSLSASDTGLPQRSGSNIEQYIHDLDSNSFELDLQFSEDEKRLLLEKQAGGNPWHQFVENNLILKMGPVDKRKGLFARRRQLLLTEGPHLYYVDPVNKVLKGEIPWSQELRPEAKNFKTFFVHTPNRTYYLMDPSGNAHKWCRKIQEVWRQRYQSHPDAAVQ
Procedure: FIG. 1. PIF prevents PDK1 from phosphorylating p70 S6K in vitro. GST-p70 S6K lacking the C-terminal 104 amino acids (GST-p70 S6KT2) (1 μg) was incubated for 30 min at 30° C. with Mg [γ^32P] ATP and GST-PDK1 (50 nM) in the presence or absence of either wild type (wt) GST-PIF or D978A GST-PIF (1.5 μM), or the indicated PIF peptides (4 μM) in a final volume of 20 μl. The reactions were terminated by making the solutions 1% in SDS, the samples subjected to SDS-polyacylamide gel electrophoresis, and the phosphorylation assessed by autoradiography of the gel. The position in the gel where GST-p70 S6KT2 (73 kDa) migrates is indicated with an arrow. The only other ^32P-labelled protein on the gel which is not shown, corresponded to autophosphorylation of PDK1 and contained ˜10 fold lower levels of ^32P-radioactivity than that of the GST-p70 S6T2 phosphorylated by PDK1 in the absence of PIF. A high amount of PDK1 is used in this experiment to achieve a near maximal phosphorylation of GST-p70 S6T2. If the reactions were carried out at a 10-fold lower concentration of PDK1 under conditions where the phosphorylation of GST-p70 S6T2 by PDK1 is linear with time and the amount of substrate used, then PIF still prevented the phosphorylation of GST-p70 S6T2 (data not shown). wt indicates wild type and PSer indicates phospho-serine. The results of a duplicate experiment for each condition are shown, and similar findings were obtained in five separate experiments.
Preparation of insect cell His-p70 S6K. p70 S6K with a His-epitope tag at its N-terminus lacking the carboxy terminal 104 residues is termed p70 S6K-T2. In order to prepare wild type and the mutant 412E-p70 S6K-T2 the cDNA for these constructs was amplified by PCR from the pMT2 vector encoding these forms of p70 S6K [6] using the following oligonucleotides: 5′-AGGATCCACCATGCACCATCACCATCACCATATGAGGCGAGCAAGGAGGCGG-3′ and 5′-GCGGCCGCTCAACTTTCAAGTACAGATGGAGCC-3′. The PCR products were then subcloned into the BamH1/Not1 sites of the pFASTBAC 1 vector and this vector was used to generate recombinant baculovirus using the Bac-to-Bac system (Life Technologies Inc). The resulting viruses, encoded p70 S6K-T2 or 412E-p70 S6K-T2 with an N-terminal hexahistidine sequence, and was used to infect Sf21 cells (1.5×10^6/m) at a multiplicity of infection of 5. The infected cells were harvested 72 h post-infection and the His-p70 S6K proteins purified by Ni^2+/NTA (nitrilotriacetic acid)-agarose chromatography as described previously for PKBβ [25]. […]

PDK1 [4] = biological target: T2, PDK1; assay: Yeast two-hybrid interaction with PDK1; format: binding; design: expressed in transfected cells; host or cells: Saccharomyces cerevisiae strain Y190; conditions: wild type PDK1
PDK1 [5] = assay: Yeast two-hybrid interaction with PDK1; format: binding, human; conditions: PDK1 L155 mutants
PDK1 [6] = biological target: T2, PDK1; assay: Glutathione-Sepharose pull-down of PDK1 with S6K1 or SGK1 from 293 cells; format: binding; design: Full length PDK1 (residues 1-556); made in house; host or cells: 293 cells; conditions: Flag-tagged S6K1 forms; wild type GST-PDK1
Procedure: FIG. 21. Interaction of S6K1 and SGK1 with PDK1. 293 cells were transiently transfected with DNA constructs expressing GST, GST-PDK1 wt or PDK1 L155E together with constructs expressing either wild type or the indicated mutants or truncations of HA tagged S6K1 (A) or wild type GST-ΔN-SGK1 or 422D mutant. 36 h post transfection the cells were lysed and GST fusion protein was purified by affinity chromatography on glutathione-Sepharose beads. Aliquots were electrophoresed on a 10% SDS-polyacrylamide gel, stained with Coomassie Blue, or immunoblotted using an anti-FLAG antibody to detect FLAG-S6K1 and anti-Myc antibody to detect Myc-PDK1. To establish that the wild type and mutant proteins were expressed at similar levels, […] of total lysate was electrophoresed on a 10% SDS-polyacrylamide gel and immunoblotted using the indicated antibodies. Duplicates of each condition are shown. Similar results were obtained in two different experiments.
Binding of PDK1 to SGK1 and S6K1. For the data presented in FIG. 22, 293 cells were cotransfected with 10 μg of the wild type or mutant PDK1 plasmid and 10 μg of either the wild type or mutant S6K1 or SGK1. […] The gels were either stained with Coomassie blue, or analysed by immunoblotting with either anti-Flag or anti-Myc antibodies (described below).

## CC(C)C[C@H](NC(=O)[C@H](Cc1ccc(O)cc1)NC(=O)[C@H](CCC(=O)O)NC(=O)[C@@H]1CCCN1C(=O)[C@@H](NC(=O)CNC(=O)[C@H](CS)NC(=O)[C@H](Cc1ccccc1)NC(=O)[C@@H](NC(=O)[C@@H](N)CCCCN)[C@@H](C)O)[C@@H](C)O)C(=O)N[C@@H](C)C(=O)N1CCC[C@H]1C(=O)N[C@@H](CCC(=O)O)C(=O)N[C@H](C(=O)N[C@@H](CCCNC(=N)N)C(=O)N[C@@H](CCCNC(=N)N)C(=O)O)C(C)C [T308tide, KTFCGTPEYLAPEVRR, reference compound] (H-KTFCGTPEYLAPEVRR-OH)
PDK1 [1]; read-out: Km of PDK1 for peptide substrate
  Km: > 10 mM

## GST-D978A-PIF: mutant GST-PIF in which the amino acid equivalent to Asp978 in PRK2 is mutated to Ala
PDK1 [2]
  affinity for PDK1 compared with wild type PIF: markedly reduced affinity
PDK1 [3]
  effect on phosphorylation of GST-p70 S6K-T2 by PDK1: poorly inhibited

## KTFCGTPEYLAPEVRREPRILSEEEQEMFRDFDYLADWC [PDKtide, 39 amino acid polypeptide composed of T308tide fused to PIFtide]
PDK1 [1]; assayed at 100 μM
  rate of phosphorylation by PDK1 relative to T308tide: over 100 fold

## PKACT: C-terminal fragment of PKA composed of residues 129-350
PDK1 [4]
  two-hybrid interaction with full length PDK1: positive interaction
PDK1 [5]
  two-hybrid interaction with L155S, L155D or L155E mutants of PDK1: greatly reduced

## full length S6K1: Flag epitope tagged full length S6K1
PDK1 [6]
  interaction with GST-PDK1: failed to interact

## full length S6K1[T412E]: Flag epitope tagged full length S6K1 with Thr412 to Glu
PDK1 [6]
  interaction with GST-PDK1: failed to interact
